Measured values as given in publication PMC3183090, “A Noncoding Point Mutation of Zeb1 Causes Multiple Developmental Malformations and Obesity in Twirler Mice”.

Columns and labels:
C-Myb [1] = biological target: T1, C-Myb (mouse, UniProt P06876 1-636); test: EMSA; 20 ul reactions with EMSA Accessory Kit (Novagen), 6% DNA retardation gel; buffer composition, salt, pH and temperature not stated; settings: protein: recombinant; tags: pET-41a(+) vector tags (Ni-NTA purified); blunt
C-Myb [2] = biological target: T1, C-Myb; test: competition; unlabeled, 25- or 50-fold molar excess vs labeled N1; complete inhibition; 20 ul reactions with EMSA Accessory Kit (Novagen), 6% DNA retardation gel; buffer composition, salt, pH and temperature not stated; settings: protein: recombinant; tags: pET-41a(+) vector tags (Ni-NTA purified); 5' overhang 1 nt on strand 1 as printed (S6 lacks the 3' C)

T1 sequence (P06876 whole entry): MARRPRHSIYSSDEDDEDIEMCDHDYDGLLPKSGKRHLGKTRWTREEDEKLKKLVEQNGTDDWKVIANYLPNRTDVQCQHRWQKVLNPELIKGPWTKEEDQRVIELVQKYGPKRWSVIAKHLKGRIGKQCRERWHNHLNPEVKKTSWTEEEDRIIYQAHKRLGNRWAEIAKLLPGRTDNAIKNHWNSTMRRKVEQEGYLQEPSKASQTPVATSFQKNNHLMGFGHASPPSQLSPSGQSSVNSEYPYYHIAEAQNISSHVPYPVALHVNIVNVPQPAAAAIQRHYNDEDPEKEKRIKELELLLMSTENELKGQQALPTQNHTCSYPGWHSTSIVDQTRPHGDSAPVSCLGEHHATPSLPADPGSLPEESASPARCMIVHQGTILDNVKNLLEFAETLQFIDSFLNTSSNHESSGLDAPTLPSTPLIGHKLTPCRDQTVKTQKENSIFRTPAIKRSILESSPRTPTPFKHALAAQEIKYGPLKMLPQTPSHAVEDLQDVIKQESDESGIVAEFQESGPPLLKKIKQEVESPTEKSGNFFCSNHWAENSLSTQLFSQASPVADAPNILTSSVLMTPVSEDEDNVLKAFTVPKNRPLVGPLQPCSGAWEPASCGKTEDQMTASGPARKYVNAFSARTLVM

Binder	binding result (C-Myb [1])	binding result (C-Myb [2])
Zeb1 c.58+181G (wild type) probe (dsDNA) DNA 1: TGCTGGACTGGACCGTTATGTCTTACCTGC DNA 2: GCAGGTAAGACATAACGGTCCAGTCCAGCA	binds	
Zeb1 c.58+181A (Twirler) probe (dsDNA) DNA 1: TGCTGGACTGGACCATTATGTCTTACCTGC DNA 2: GCAGGTAAGACATAATGGTCCAGTCCAGCA	no binding	
mim-1 C-Myb site control (dsDNA) DNA 1: GCTCTAAAAAACCGTTATAATGTACAGATATCTT DNA 2: AAGATATCTGTACATTATAACGGTTTTTTAGAG		binds
